The source of these data is article PMC6335408.

The target of assay [1] is USP7 C-terminal tail peptide (residues 1083-1102), biotinylated (UniProt Q93009). The assay can be described thus: SPR; N-terminally biotinylated C-terminal tail peptide immobilised (~30 RU) on SA chip, CD or CDUb flowed over; Biacore T200, 25 °C; same running buffer.
Assay [2] has as its target GST-Ubl45 (immobilised) (UniProt Q93009). The assay can be described thus: SPR; GST-Ubl45 or GST-Ubl45ΔC captured by anti-GST antibody on CM5 chip, covalent CDUb flowed over; Biacore T200, 25 °C; same running buffer; equilibrium fit and EvilFit.
For assay [3] the target is unchanged. The assay is described as follows: SPR; around 50 units of Ubl45 immobilised, titration range of p53Ub-bound TCD flowed over; equilibrium fit.
The target in assay [4] is USP7 catalytic domain CD (Homo sapiens) (UniProt Q93009). The assay is described as follows: activation assay. The following applies: cited from earlier work.
Assay [5] addresses USP7 CD45 (catalytic domain linked to Ubl45). The assay can be described thus: SEC-MALS; Superdex 200 in 20 mM HEPES pH 7.5, 100 mM NaCl, 1 mM DTT, in-line MALLS; CD45 100 µL of 45 µM, FL 80 µL of 20 µM loaded. (SEC sorts molecules by how far they enter the pores of the column.)
In assay [6] the target is USP7 CD12345^ΔC (UniProt Q93009).
For assay [7], the target named is USP7 catalytic domain (CD).
In assay [8] the target is TAMRA-labelled p53 peptide (UniProt P04637). The assay can be described thus: fluorescence polarisation; 25 nM TAMRA-p53 peptide with a dilution series of USP7 constructs; plate reader; 20 mM HEPES pH 7.5, 100 mM NaCl, 1 mM DTT, 1 mM EDTA, 0.05% Tween-20. For orientation: In fluorescence polarisation assays a small probe gives low polarisation when free and higher when bound to something large.

Assay [9] concerns the target USP7-TCD (TRAF domain and catalytic domain, lacks all Ubl domains). The assay is described as follows: covalent suicide-probe reaction (preparative); 120 µM CD (or TCD) incubated overnight with an excess of probe and Ubl45 (both 150 µM) under dialysis against 20 mM HEPES pH 7.5, 50 mM NaCl, 2 mM DTT.
For assay [10], the target named is USP7 CD12345 (catalytic domain with Ubl domains 1-5 and tail, no TRAF domain) (UniProt Q93009).
Assay [11] deals with USP7-TCD (TRAF domain and catalytic domain, lacks all Ubl domains).
The target in assay [12] is full-length (FL) USP7 (UniProt Q93009).
For assay [13], the target named is USP7 catalytic domain (CD). The assay is described as follows: covalent suicide-probe reaction (preparative); 120 µM CD (or TCD) incubated overnight with an excess of probe and Ubl45 (both 150 µM) under dialysis against 20 mM HEPES pH 7.5, 50 mM NaCl, 2 mM DTT.

Broadly, the Kd is the concentration at which binding is half-saturated. The koff is the rate constant with which the complex falls apart. For the substance “CDUb (USP7 catalytic domain covalently coupled to ubiquitin through Ub-PA) (from UniProt P0CG48 1-76) (complex)”, the dissociation constant Kd in [1] came to 2.6 µM. In [2], this substance gave a Kd of 0.59 µM and a koff of 0.8 s⁻¹.
In turn, “TCD-p53Ub (USP7-TCD covalently bound to the p53UbVA probe) (from UniProt P04637 357-389; P0CG48 1-76) (complex)” showed a Kd in [3] of 2.9 µM.
For the substance “USP7 C-terminal peptide C-terminal tail (from UniProt Q93009)”, the Kd in [4] is 1000 µM.
A word on the stoichiometry N: it is a count of units in the complex or per binding partner. Regarding “USP7 CD45 (catalytic domain linked to Ubl45) (domain or fragment)”, the stoichiometry N in assay [5] stood at 2.
With “USP7 CD12345^C223A (from UniProt Q93009 1-1102) (domain or fragment)”, in assay [6], the apparent KD (K (D,app)) from activation of CD12345^ΔC (20 nM) DUB activity on UbRho, titration of CD12345^C223A was determined as 60 µM.
Turning to “USP7 Ubl45 (last two Ubl domains with the activating C-terminal tail) (from UniProt Q93009 890-1102) (domain or fragment)”, the apparent KD from in trans activation of CD (20 nM) DUB activity on UbRho, titration of Ubl45 in assay [7] came to 110 µM.
In assay [8], “full-length (FL) USP7 (from UniProt Q93009 1-1102) (enzyme)” registered a Kd of 0.16 µM.
In the case of “p53UbVA (covalently binding, vinylamide-linked ubiquitinated p53 peptide, res. 357-389) (from UniProt P04637 357-389; P0CG48 1-76)”, the percent reacted with the probe in [9] turned out to be 100%.
In turn, “p53Ubinh (non-hydrolysable, triazole-linked ubiquitinated p53 peptide) (from UniProt P04637 357-389; P0CG48 1-76)” had an IC50 of inhibition of UbRho hydrolysis by p53Ubinh (CD12345 0.35 nM): fold by which the IC50 of FL is better than that of CD12345 in assay [10] of 60 fold. Further, the IC50 of inhibition of UbRho hydrolysis by p53Ubinh (TCD 200 nM): fold by which the IC50 of FL is better than that of TCD in assay [11] is 60 fold. The IC50 of inhibition of UbRho hydrolysis by p53Ubinh (FL 0.35 nM, UbRho 0.4 µM) in [12] worked out at 0.016 µM.
Substance “ubiquitin-propargyl (Ub-PA) suicide probe (from UniProt P0CG48 1-76)” displayed a percent of CD reacted with the probe in assay [13] of 80%.
